Assay: yeast display, Sf9 membrane polyspecificity reagent, FACS + sequencing; frameworks hold sequencing errors
Outline: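 Nanobodies came from a synthetic yeast display library in Saccharomyces cerevisiae BJ5465, induced with galactose for 36–48 hours and stained for 1 hour at 4 °C with 10% biotinylated, detergent-solubilized Sf9 membrane reagent. Cells were enriched on streptavidin microbeads and then FACS-sorted, with low and high (top ~1%) gates set on anti-HA fluorescence for expression and streptavidin fluorescence for reagent binding. Each polyreactivity label reflects the gate a clone came from. Genes were amplified by colony PCR, sequenced by MiSeq 2 × 250 and filtered by CDR length.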

| Sequence | polyreactivity (PSR sort gate) |
| --- | --- |
| QVQLVESGGGLVQAGGSLRLSCAASGRIFARNAMGWYRQAPGKESELVAAINWSGGSTYYADSVKGRFTISRDNAKNTVYLQMNSLKPEDTAVYYCATRSSLFRQYLPWYEYWGQGTQVTVSS | low polyreactivity |
| QVQLVESGGGLVQAGGSLRLSCAASGRTFRKYAMGWYRQAPGKERELVAAISWSGGSTYYANSVKGRFTISRDNAKNTVYLQMNSLKPEDTAVYYCAAVPVHTGSLYWGFTTGYDYWGQGTKVTVSS | low polyreactivity |
| QVQLVESGGGLVQAGGSLRLSCAASGRIFRGNTMGWYRQAPGKERELVAAITRGGSTSYADSVKGRFTISRDNAKNTVYLQMNSLKPEDTAVFYCATRTHGEGTRRDSWGQGTQVTVSS | low polyreactivity |
| QVQLVESGGGLVQAGGSLRLSCAASGSIFVQYDMGWYRQAPGKERELVAAISWSGGSTYYADSVKGRFTISRDNAKNTVYLQMNTLKPEDTAVYYCAARARLWYFSYGYWGQGTQVTVSS | low polyreactivity |
| QVQLVESGGGLVEAGGSLRLSCAAGGRIVDRYAMGWYRQAPGKEREVVAAISDRGGSTYYADSVKGRFTISRDNAKNTVYLQMNSLKPEDTAVYYCNKVYGWYSFTWGPTASDYWGQGTQVTVSS | low polyreactivity |
| QVQLVESGGGLDQAGGSLRLSCAASGSTFDYYARGWYRQAPGKERELVAAISSSGGSTYYADSVKGRFTISRDNANYTVYLQRNSLKPEDTAVYYCNKYGGTLRSDYWGQGTQVTVSS | high polyreactivity |
| QVQLVESGGGLVQAGGSLRLSCAASGSTFSRYAMGWYRQAPGKERELVAAISSSGGSTYYADSVKGRFTISRDNAKNTVYLQMNSLKPEDTAVYYCAARYYGVTRGYNYWGQGTQVTVSS | high polyreactivity |
| QVQLVESGGGLFQAGGSLRLSCAASGRTFRSYAMGWYRQAPGKERELVAAISTGGSTYYADSVKGRFTISRDNAKNTVYLQMNSLKPEDTAVYYCAAEFNAYTPAGLWYTYYYWGQGTQVTVSS | high polyreactivity |
| QVHLVESGGGLVQAGCCLRLRCAASGRTYDAYAKAWYRQAPGKERELVAAISSGDITNYADSVKGRFTISRDHAKNTVYLQMNSLKPEDTAVYYCAAKPRLRFFLWHEYSSRYDYWGQGTQVTVSS | high polyreactivity |
| QVQLVESGGGLVQAGGSLRLSCAASGSTFARYAMGWYRQAPGKERELVAAISRRGGSTYYADSVKGRFTISRDNAKNTVYLQMNSLKPEDTAVYYCAARYGIISSFEYDYWGQGTQVTVSS | high polyreactivity |
| QVQLVESGGGLVQAGGSLRLSCAASGITFTFNAMGWYRQAPGKERELVAAISSTTSTKYADSVKGRFTISRDNAKNTVYLQMNSLKPEDTAVYYCALTYLLRYYGYRDDEYDYWGQGTQVTVSS | low polyreactivity |
| QVQLVESGGGLVQAGGSLRISCAASGRIFVGYAMGWYRQAPGKERELVAAINRSGSSTYYADSVKGRFTISRDNAKNTVYLQMNSLKPEDTAVYYCNARSGNRYGPRYDYWGQGTQVTVSS | high polyreactivity |
| QVQLVESGGGLVLAGGSLRLSCAASGGIFYGYAMGWYREAPGKEREMVAAISSTGGRTYYADSVKGRFTISRDNAKNTVYLQMNSLKPEETAVYYCAAEDFTRQFEYWGQGTQVTVSS | low polyreactivity |
| QVHLVESGGGLVQAGGSLRLSCAASGRTFPYTAMGSYRQAPGKERELVAAISSGGSTNYADSVKGRFTISRDNAKNTVYLQMNSLKPEDTAVYYCATKYQRRPYRYYYWGQGTQVSVSS | low polyreactivity |
| QDQLVESGGGLVQAGGSLRLSCAASGSTFVKNAMGWYRQAPGKERELVATISKSAGRTYYADSVKGRFTISRDNAKNTVYLQMNSLKPEDTAVYYCNVVQKRDFDYWGQGTQVTVSS | high polyreactivity |
| QVQHVESGGGLVQAGGSLRLSCAASGSTFGWYAMGWYRQAPGKERELVAAITRRGTRTYYADSVKGRFTISRDNAKNTVYLQMNSLKPEDTAVYYCNARGFPGKFGYWGQGTQVTVSS | high polyreactivity |
| QVQLVESGGGLVQAGGSLRLSCAASGFIIVYYAMGWYRQAPGKERELVAGISSGGSTYYADSVKGRFTISRDNAKNTVYLQMNSLKPEDTAVYYCATRYLYRGYSYFAYDYWGQGTQVTVSS | low polyreactivity |
| QVQLVESGGGLVQAGGSLRLSCAASGRTFRWYPMGWYRHAPGKEREFVARITWSGGRTYYADSVKGRFTISRDNAKNTVYLQMNSLKPEDTADYYCAAYFVGRYRLEYWGQGTQVTVSS | high polyreactivity |
| QVQLVESGGGLVQARGSLRLSCAASGLTFITNTMGWYRQAPGKERELVAVISYSGTSTYYADSVKGRFTISRDYAKNTVYLQMNSLKPEDTAVYYWDASYLGSYRYSYYYWGQGTQVTVSS | high polyreactivity |
| QVQLVASGGGLVQAGGSLRLSCAASGLIIRYYAMGWYRQAPGKEREFVAAITWNGGSTYADSVKGRFTISRDNAKNTVNLQMNSLIPEDTAVYYCAADLSYWDDFDYSGQGTQVTVSS | low polyreactivity |
| QVQLVESGGGLVQAGGSLRLSCAASGFTFHYNAMGWYRQAPGKERELVAAISRSGGITNYADSVKGRFTISRDNAKNTVYLQMNSLKPEDTAVYYCAAYLVVRIRYTQRYDYWGQGTQVTVSS | low polyreactivity |
| QVQLVESGVGLVQSGGSLRLSCAASGFSIEPYAMGLYRQAPGKERELVAAISWSGGSTYYADSVKGRFTISRDNAKNTVYLQMNSLKPEDTAVYYCAAEWYNSAYYEYDYWGQGTQVTVST | high polyreactivity |

| Sequence | polyreactivity (PSR sort gate) |
| --- | --- |
| QVQLVESGGGLVQAGGSLRLSCAASGRIFFANAMGWYRQAPGKERELVAAITSDGSTDYADSVKGRFTISRDNAKNTVYLQMNSLKPEDTAVYYCNADAYYRYGITMDYWGQGTQVTVSS | low polyreactivity |
| QVQLVESGGGLVQAGGSLRLSCAASGRTFYPNAMGWYRQAPGKERELVAGIRSSGDSTYYADSVKGRFTISRDNAKNTVYLQMNSLKPEDTAVYYCNRDLTPSYDYWGQGTQVTVSS | low polyreactivity |
| QVQLVESGGGLVHAGGSLRLSCAASGLTFYGYTMGCYRQAPGKERQLVADISISGGSTRYADSVKGRFTISRDNAKNTVYLQMISLKPEDTAVYYCARDDIYYSNIYDYWGQGTQVTVSS | low polyreactivity |
| QVQLQESGGGLVLAGGSLRLSCSASGNISVYGSMGWYRQAPGKEREFVATIDPGTNTNYADSMKDRFTISRDNAKNTVYLQMNSLKPEDTAVYYCAVEAGSDWPYRYWGQGTQVTVSS | low polyreactivity |
| QVQLVESGGGLVQAGGSLRLSCAASGFTFYIYAMGWDRQAPGKERELVAAIRASGGSTYYADSVKGRFTISRDSAKNTVYFLMNSLNPDDTAVYYCAADYKVYASWYYAYTFYYWGQGTQVTVSS | low polyreactivity |
| QVQLGESRRGLVQAGGSLRLSCAASGITFWYNATGWYRQSPGKERELDAAISRSAGSTYYADSVKGRFTISRDNAKNTVYLQMNSLKPEDTAVYYCAAKTPGRYYYWGQGTQVTVSS | high polyreactivity |
| QVQRVESAGGLVQARGSLRLSSAASGRIFKAYAMGCYRQAPGKERELVAAISRSGGNTYYADSVKGRFTISRDNAKYTVYLQLNSLKPEETAVYYCAARRFWGSDYDYWGQGTQVTVSS | high polyreactivity |
| QDQLEESALGLVQAGGSLRLICAASGRTFQYYTMAWYRPAPAKEREFVAAIRDSGGSTYYADSVKGRFTISRDNAKNTVYLQMNSLKPEDTAVYYCNKVPNGPSNYDYWGQGTQVTVSS | high polyreactivity |
| QVQLVESGGGLVQAGGSLRLSCAASGSIFPQYAMGWYRQAPGTERELVAAISSSGGRTYYADSVKGRFTISRDNAKYTVYLQMNSLKPEDTAVYYCITRWRSRYGYGDQSEDYWGQGTQVTVSS | high polyreactivity |
| QVQLGESGGGLFQAGGSLRLSCAASVRIFKGYNMGWYREAPRKEMELVAAISKSGGRTYYADSVKGRFTISRDNAKNTVYLQMNSQKPVDTAVYYCAARGGCKRPFGYQLQYDYWGQGTQVTVSS | high polyreactivity |
| HVQLVESGGGLVQAGGSLRLSCAASGSISHLYTMRWYRQAPGKERELVAAIRYSGGRTDYADSVKGRFTISRDNAKNTVYLQMNSLKPEDTAVYYCAATQLRRWYYHYGLDYWGQGTQVTVSS | high polyreactivity |
| QVQLVESGGGLVQAGGSHRLSCAASGSIFLFNAMGWYRQAPGKERELVAAITSPTARTYYADSVKGRFTISRDIAKNTVYLQMNSLKPEDTAVYYCAARYRYAYGYGRGYSWGQGTQVTVSS | high polyreactivity |
| QVQLVESGGGLVPAGGSLRLSCAASGFTFGVYAMGWYRQAPGKERELVAAITWSGGRTYYADSVKGRFTISRDNAKNSVYLQMNSLKPEDTAVYYCAAGFYRYNAVRYDYWGQGTQVTVSS | high polyreactivity |
| QVQLVESGGGFVQAGGSLRLRCAASGRTFGWYAMGWYRQAPGKERELVAAITWRGGSTYYADSVKGRFTISRDNAKNTVYLQMNSLKPEDTAVYYCAAAAEKRSYYWGQGTQVTVSS | high polyreactivity |
| QVQLVESGGGLVQAGGSLRLSCAASGSTFYPNPMGWYRQAPGKERELVAAISQRGGRTYYADSVKGRFTISRDNAKNTVYLQMNSLKPEDTAVYYCAATYQGYNSWYSFGYWGQGTQVTVSS | high polyreactivity |
| QVQLVESGGGLVQAGGSLRLSCAASGSIFGVNTMGWYRQAPGKERELVAAISSGGNTHYADSVKGRFTISRDNAKNTVYLQMNSLKPEDTAVYYCAAAYVGIYYVSRRRWERYYYWGQGTQVTVSS | high polyreactivity |
| QVQLVESGGGLVQAGGSLRLRCAASGFTFFAYALGWYRQAPGKESELVAGISRSGGRTYYADSVKWRFTISRDNAKNTVYLQMNSLKPEDTAVYYCAAGIPVTSRHLGYWGQGTQVTVSS | high polyreactivity |
| QVQLVESGGGLVQAGGSLRLSCAASGRIFLSNGMGWYRQAPGKERELVAGITTGGGDSTYYADSVKGRFTISRDNAKNTVYLQMNSLKPEDTAVYYCNADSVYAGFDYWGQGTQVTVSS | low polyreactivity |
| QVQLVESGGGLVQAGGSLRLSCAASGRIFRLYAMGWYRQAPGKERELVASISKSGGSTYYADSVKGRFTISRDNAKNTVYLQMNSLKPADSAVYYCAADYRTHGGYEGTFDYWGQGTQVTVSS | low polyreactivity |
| QVQLGESGGGLVQAGGSLRLSCAASGSTFPRYVMGWYRQAPGKERELVAAISSSSGRTFYADSVKGRFTISRDNAKNTVYLQMNSLKPEDTAVYYCAARTSFNVHYWGQGTQVTVSS | high polyreactivity |
| QVQLVESGGGLDLAGGSLRLSCASSGLTFFYYAMAWYRQAPGKEMEFVASISRSGGSTYYADSVKGRFTISRDNAKNTVSLQKNSLKPEDTAVYYCAAVERRTPGYGYDYWGQGTQVTVSS | high polyreactivity |

Source: the nanobody polyreactivity screen of Harvey et al. (2022)
